The Human Domainome abundance scans (Beltran et al. 2025)
± gives the uncertainty stated by the source.

B1: Steroid hormone receptor ERR2, residues 100 to 176; numbered along this chain, O95718 (parent)
chain: KRLCLVCGDIASGYHYGVASCEACKAFFKRTIQGNIEYSCPATNECEITKRRRKSCQACRFMKCLKVGMLKEGVRLD
B2: E3 ubiquitin-protein ligase Midline-1, residues 172 to 214; numbered along this chain, O15344 (parent)
chain: GLMCLEHEDEKVNMYCVTDDQLICALCKLVGRHRDHQVAALSE

Variants of: B1
Assay: abundance fitness (aPCA) (normalised: wild type 0, dead -1); higher = more abundant; growth selection in yeast, the domain comes from the species named
Details: Homo sapiens

Abundance fitness of substitutions, site by site:
Y16: Q -0.366 ± 0.078, V -0.115 ± 0.041, E -0.06 ± 0.055, H -0.378 ± 0.14, N -0.093 ± 0.069, D 0.008 ± 0.054, C -0.213 ± 0.077, G -0.08 ± 0.045, W -0.103 ± 0.074, S -0.276 ± 0.05, I -0.342 ± 0.087, L -0.332 ± 0.046, P -0.355 ± 0.067, T -0.418 ± 0.059, K -0.315 ± 0.084, M -0.239 ± 0.074
G8: E 0.006 ± 0.06, S -0.117 ± 0.052, P -0.725 ± 0.16, T -0.077 ± 0.061, C -0.381 ± 0.1, V -1.11 ± 0.17, M -0.201 ± 0.071, Y -0.132 ± 0.12, L -0.091 ± 0.046, H -0.102 ± 0.1, D -0.096 ± 0.092, A -0.101 ± 0.055, W -0.374 ± 0.071, I -0.636 ± 0.3, Q 0.086 ± 0.058, N -0.758 ± 0.18, F -0.274 ± 0.15
C4: S -0.824 ± 0.11, V -0.917 ± 0.14, D -1.1 ± 0.32, K -0.66 ± 0.13, P -0.938 ± 0.19, W -0.934 ± 0.15, E -0.634 ± 0.12, M -0.72 ± 0.14, F -1.09 ± 0.37, G -0.696 ± 0.083, H -0.956 ± 0.29, I -0.956 ± 0.3, Y -0.426 ± 0.2, L -0.8 ± 0.11, Q -0.759 ± 0.12, R -0.792 ± 0.094, A -0.801 ± 0.11, T -0.79 ± 0.17
Y14: E 0.101 ± 0.066, F 0.063 ± 0.083, W 0.032 ± 0.062, S -0.111 ± 0.055, P -0.315 ± 0.12, I 0.03 ± 0.091, Q -0.145 ± 0.083, A 0.163 ± 0.063, V 0.136 ± 0.043, G -0.017 ± 0.051, M -0.276 ± 0.083, H -0.034 ± 0.093, R -0.446 ± 0.075, K 0.03 ± 0.077, L 0.04 ± 0.047, C 0.068 ± 0.079, N -0.022 ± 0.11
G17: Q -0.748 ± 0.11, A -0.075 ± 0.045, K -0.477 ± 0.092, L -0.601 ± 0.068, P -0.416 ± 0.093, D -0.091 ± 0.11, H -0.356 ± 0.19, E -0.027 ± 0.071, F -0.551 ± 0.26
G13: V -0.38 ± 0.09, H -0.759 ± 0.46, T -0.509 ± 0.17, A -0.751 ± 0.17, Q -0.244 ± 0.2, W -0.64 ± 0.31, R -0.675 ± 0.14, Y -0.867 ± 0.33, L -0.743 ± 0.12, D -0.02 ± 0.092, I 0.038 ± 0.17, C -0.947 ± 0.29, S -0.555 ± 0.12, P -0.393 ± 0.18, M -0.539 ± 0.19, N -0.362 ± 0.21, F -0.27 ± 0.16, K -0.336 ± 0.23
H15: T -0.356 ± 0.094, I -0.115 ± 0.081, G -0.068 ± 0.048, E -0.045 ± 0.085, V -0.369 ± 0.071, C -0.435 ± 0.11, P -0.32 ± 0.092, K -0.363 ± 0.099, F -0.197 ± 0.088, Y -0.085 ± 0.14, M -0.325 ± 0.089, L -0.223 ± 0.062, D -0.211 ± 0.1, Q -0.097 ± 0.13, N -0.143 ± 0.077, W -0.1 ± 0.066
R2: Y 0.014 ± 0.11, L -0.136 ± 0.056, K -0.066 ± 0.074, Q -0.367 ± 0.096, T -0.263 ± 0.07, W -0.338 ± 0.082, C -0.111 ± 0.11, E -0.105 ± 0.071, P -0.502 ± 0.19, H 0.072 ± 0.11, M -0.074 ± 0.067, V -0.228 ± 0.066, D 0.125 ± 0.1, F 0.16 ± 0.13, S -0.187 ± 0.066, A -0.226 ± 0.067, N 0.04 ± 0.1, G -0.176 ± 0.058
D9: P -0.894 ± 0.25, Y -0.351 ± 0.11, Q -0.143 ± 0.078, M -0.216 ± 0.074, N -0.365 ± 0.14, H -0.365 ± 0.19, C -0.829 ± 0.22, I -0.369 ± 0.15, W -0.301 ± 0.072, G -0.208 ± 0.045, V -0.43 ± 0.063, L -0.454 ± 0.067, F -0.492 ± 0.14, R -0.508 ± 0.066, S -0.36 ± 0.069
K1: S -0.295 ± 0.1, A -0.34 ± 0.12, V -0.334 ± 0.087, E -0.128 ± 0.07, W -0.387 ± 0.099, C -0.432 ± 0.16, Q -0.346 ± 0.14, T -0.177 ± 0.08, L -0.67 ± 0.18, F -0.641 ± 0.23, G -0.386 ± 0.071, I -0.45 ± 0.27, N 0.031 ± 0.12, M 0.013 ± 0.074, H -0.525 ± 0.29, R -0.286 ± 0.074, D -0.089 ± 0.092
L5: S -0.233 ± 0.058, H -0.351 ± 0.18, F -0.133 ± 0.11, Q -0.094 ± 0.061, T -0.031 ± 0.06, P -0.358 ± 0.085, G -0.341 ± 0.052, N -0.246 ± 0.083, V -0.424 ± 0.067, K -0.143 ± 0.062, Y -0.186 ± 0.12, M -0.139 ± 0.067, R -0.197 ± 0.045, A -0.192 ± 0.055, I -0.333 ± 0.12, W -0.332 ± 0.081, C -0.375 ± 0.14
L3: V -0.036 ± 0.047, G -0.118 ± 0.041, C -0.373 ± 0.11, A -0.047 ± 0.048, H 0.133 ± 0.072, Y 0.219 ± 0.085, W -0.446 ± 0.066, P -0.372 ± 0.083, R -0.152 ± 0.042, S -0.062 ± 0.053, T -0.025 ± 0.054, Q -0.055 ± 0.062, E -0.048 ± 0.052, F 0.284 ± 0.077, M -0.1 ± 0.073, N 0.179 ± 0.07, I 0.319 ± 0.087
C7: R -0.586 ± 0.069, Y -0.993 ± 0.32, H -1 ± 0.28, Q -0.918 ± 0.16, L -1.17 ± 0.17, E -0.874 ± 0.13, V -0.976 ± 0.12, P -0.673 ± 0.14, N -0.635 ± 0.19, I -1.05 ± 0.25, G -0.96 ± 0.11, W -1.22 ± 0.28, A -0.775 ± 0.11, K -1.19 ± 0.23, F -0.362 ± 0.12, D -0.602 ± 0.12, S -0.726 ± 0.097
A11: R -0.516 ± 0.067, N -0.153 ± 0.099, F -0.213 ± 0.1, D -0.241 ± 0.1, E -0.11 ± 0.063, Q -0.217 ± 0.078, C -0.177 ± 0.092, V -0.289 ± 0.063, H -0.691 ± 0.21, G -0.013 ± 0.043, Y -0.128 ± 0.092, I -0.377 ± 0.14, K -0.424 ± 0.077, L -0.311 ± 0.063, P -0.542 ± 0.14, S 0.067 ± 0.051, M -0.103 ± 0.064, T -0.321 ± 0.091
I10: R -0.046 ± 0.044, P 0.065 ± 0.072, E 0.045 ± 0.051, K 0.037 ± 0.06, D 0.195 ± 0.067, W 0.074 ± 0.06, V 0.242 ± 0.041, C -0.058 ± 0.077, N -0.393 ± 0.11, T 0.02 ± 0.062, M -0.065 ± 0.054, S -0.033 ± 0.055, A 0.275 ± 0.046, F 0.056 ± 0.091, Y -0.029 ± 0.084, H -0.011 ± 0.084, L -0.139 ± 0.056
S12: A 0.031 ± 0.053, W -0.253 ± 0.083, Q 0.115 ± 0.068, P -0.161 ± 0.087, N -0.019 ± 0.087, I -0.327 ± 0.14, E -0.02 ± 0.062, H 0.082 ± 0.072, C 0.155 ± 0.073, D 0.022 ± 0.072, R -0.026 ± 0.047, T -0.138 ± 0.06, G -0.023 ± 0.048, V 0.029 ± 0.051, Y -0.32 ± 0.12, L -0.156 ± 0.053, M -0.118 ± 0.063
V6: G -0.768 ± 0.087, W -0.751 ± 0.14, R -0.739 ± 0.08, H -1.18 ± 0.48, Q -0.781 ± 0.14, Y -0.57 ± 0.16, T -0.51 ± 0.1, P -0.978 ± 0.21, M -1.01 ± 0.19, E -0.612 ± 0.091, N -0.826 ± 0.2, C -0.684 ± 0.14, L -0.836 ± 0.11, K -0.211 ± 0.074, A -0.497 ± 0.078, S -0.713 ± 0.1, D -0.934 ± 0.24

Variants of: B2
Assay: as above
Details: Homo sapiens

Abundance fitness, by site and new letter:
A40: Q 0.082 ± 0.095, R -0.019 ± 0.053, Y -0.572 ± 0.26, T 0.035 ± 0.087, S 0.065 ± 0.07, P 0.228 ± 0.089, W -0.406 ± 0.064, V -0.236 ± 0.06
E43: A -0.004 ± 0.064, V -0.534 ± 0.16, Q -0.317 ± 0.12, T -0.221 ± 0.35, H -0.197 ± 0.1, W -0.175 ± 0.15, K 0.091 ± 0.22, D -0.239 ± 0.2, S 0.058 ± 0.1, P -0.076 ± 0.1, G -0.045 ± 0.078, L -0.241 ± 0.12, R -0.031 ± 0.058
L41: F -0.132 ± 0.1, P 0.297 ± 0.061, N -0.034 ± 0.099, I -0.082 ± 0.09, S 0.134 ± 0.057, W 0.001 ± 0.058, A 0.072 ± 0.052, H 0.172 ± 0.075, K 0.161 ± 0.058, Y -0.467 ± 0.2, V -0.053 ± 0.054, C 0.176 ± 0.09, G 0.051 ± 0.048, Q 0.136 ± 0.058, T 0.12 ± 0.057, M 0.069 ± 0.093
S42: G 0.078 ± 0.057, H 0.089 ± 0.069, C 0.012 ± 0.084, A -0.021 ± 0.051, Y -0.34 ± 0.085, F -0.656 ± 0.27, E 0.119 ± 0.06, Q -0.049 ± 0.094, R -0.127 ± 0.063, M -0.262 ± 0.082, L -0.342 ± 0.082, I -0.446 ± 0.13, D 0.209 ± 0.07, P 0.056 ± 0.087, T 0.064 ± 0.075, N 0.142 ± 0.092
